Results: patent US20210162028A1, “Methods for Inducing Intermittent Fasting and Modulating Autophagy” (The Hong Kong Polytechnic University, priority 2019, published 2021)

Legend:
[1] = Half-life / therapeutic duration in circulation; set-up: species or system mice; conditions: mouse, in vivo
From the text: As used herein, the term “half-life” or “½-life” refers to the time that would be required for the concentration of an agent, e.g., a fusion protein or arginine depleting agent as described herein, to fall by half in vitro or in vivo, for example, after injection into a mammal. In certain instances, the concentration of plasma arginine, after injection, is used herein as a proxy indicator of the half-life of the agent. In such instances, the term “therapeutic duration” is used to refer to the length of time a specified dosage of the arginine depleting agent is able to maintain the plasma concentration of arginine below a specified threshold concentration that a desired therapeutic effect is observed. In certain embodiments, the threshold concentration of plasma arginine is below 50 μM, below 40 μM, below 30 μM, below 20 μM, below 10 μM, below 5 μM, below 3 μM, or at a concentration below the detection limit of conventional analytical instrumentation.
Importantly, the present invention used a new ABD fusion approach to join an ABD and an arginase together so that arginase activity can be retained. Stable and soluble arginase-ABD fusion molecules that can bind to FcRn in a pH-dependent manner were successfully generated, allowing for efficient endosomal recycling. […] Taken together, a variety of different approaches are available for fine-tuning the pharmacokinetic properties of arginases, ensuring appropriate residence time in circulation for different disease conditions. Another key issue in the development of any therapeutic protein is to minimize immunogenicity to avoid adverse effects. Thus, the observed low immunogenicity of human arginase and the successful deimmunization of ABD (e.g. ABD094), which was also used in the present disclosure as gene fusion partner to extend the in vivo half-life, are important.

[2] = Daily food intake / 7-day intermittent fasting cycle in mice; format: in vivo, mouse
From the text: One of the most noticeable effects of intermittent fasting is reduction of bodyweight. […] Specifically, C57BL/6J, which is the most commonly used mouse strain for polygenic obesity model, was used in the study. It is well-reported that C57BL/6J male mice feeding on a high-fat diet will have prominent weight gain, become obese and develop hyperinsulinemia, hyperglycemia, impaired glucose tolerance and insulin resistance [Gallou-Kabani et al., 2007, Obesity 15(8):1996-2005]. Obesity was induced in C57BL/6J male mice via feeding ad libitum a high-fat diet containing 60 kcal % fat (HFD; Research Diets, D12492) for 12-14 weeks starting from 5-week old. These mice are referred as diet-induced obese (DIO) mice. DIO mice were stratified according to bodyweight into 2 groups. […] Both groups of mice continued to feed ad libitum on the HFD throughout the treatment period. One group of age-matched C57BL/6J male mice feeding ad libitum on an ordinary rodent chow diet (CD; LabDiet, 50IF/6F) and injected with vehicle served as the lean control [CD (vehicle) group]. Food intake and bodyweight of mice were measured daily. […] DIO mice were injected with rhArg on Day 0, which was Day 7 of the previous cycle. Similarly, Day 7 of the cycle shown in FIG. 1B was Day 0 of the next cycle. […] Bodyweight gain is one of the biomarkers related to aging.
C57BL/6J male mice were fed a high-fat diet from 5-week old for 12 weeks. They were then stratified into 3 groups according to their bodyweight and individually caged: (i) one group of mice received i.p. injection of 600 U N-ABD094-rhArg (SEQ ID NO: 50) once a week [HFD (rhArg) group] and was fed ad libitum the HFD for 5 weeks; (ii) one group of mice received i.p. injection of saline once a week, and was fed a predetermined amount of HFD on each day to artificially create a 7-day intermittent fasting cycle that mimics the pattern of food intake of mice administered once a week with rhArg [HFD (artificial IF) group)]; (iii) one group of mice was injected with saline once a week and was fed ad libitum the HFD [HFD (vehicle) group].

[3] = Bodyweight of treated mice; format: in vivo, mouse
[4] = Glucose tolerance test (GTT); format: in vivo, mouse; conditions: DIO C57BL/6J male mice on HFD; about 250 U once a week; at 6 week
[5] = Fat pad and organ mass at end of treatment; format: in vivo, mouse; conditions: DIO C57BL/6J male mice on HFD; about 250 U once a week, 8 weeks
[6] = Insulin tolerance test (ITT); format: in vivo, mouse; conditions: DIO C57BL/6J male mice on HFD; about 250 U once a week; at 7 week
From the text: In terms of reversing insulin resistance on pre-existing obese mice, insulin tolerance test (ITT) was employed (FIG. 59).
In terms of reversing insulin resistance on pre-existing obese mice, insulin tolerance test (ITT) was employed (FIG. 68A).

[7] = DIO C57BL/6J male mouse on HFD, 50 U i.p. once a week, 2 weeks, n=1
[8] = DIO C57BL/6J male mice on HFD, about 250 U i.p. once a week, 8 weeks

B1: BHA: arginase-ABD fusion protein, SEQ ID NO: 75 (protein)
chain: MKPISIIGVPMDLGQTRRGPDMGPSAMRYAGVIERLERLHYDIEDLGDIPIGKAERLHEQGDSRLRNLKAVAEANEKLAAAVDQVVQRGRFPLVLGGDHSIAIGTLAGVAKHYERLGVIWYDAHGDVNTAETSPSGNIHGMPLAASLGFGHPALTQIGGYCPKIKPEHVVLIGVRSLDEGEKKFIREKGIKIYTMHEVDRLGMTRVMEETIAYLKERTDGVHLSLDLDGLDPSDAPGVGTPVIGGLTYRESHLAMEMLAEAQIITSAEFVEVNPILDERNKTASVAVALMGSLFGEKLMHHHHHHAQHDEAVDANSLAEAKVLANRELDKYGVSDYYKNLINNAKTVEGVKALIDEILAALP
modifications: BHA Fusion Protein, Synthesized in the Lab
- Therapeutic duration (and half-life) [1]: surprisingly high therapeutic duration (and half-life)

B2: ADI-ABD: arginine deiminase fused with albumin binding domain (SEQ ID NO: 107) (protein)
chain: MHHHHHHDEAVDANSLAEAKVLANRELDKYGVSDYYKNLINNAKTVEGVKALIDEILAALPSGSNNNNNNGSGGSVFDSKFKGIHVYSEIGELESVLVHEPGREIDYITPARLDELLFSAILESHDARKEHKQFVAELKANDINVVELIDLVAETYDLASQEAKDKLIEEFLEDSEPVLSEEHKVVVRNFLKAKKTSRELVEIMMAGITKYDLGIEADHELIVDPMPNLYFTRDPFASVGNGVTIHYMRYKVRQRETLFSRFVFSNHPKLINTPWYYDPSLKLSIEGGDVFIYNNDTLVVGVSERTDLQTVTLLAKNIVANKECEFKRIVAINVPKWTNLMHLDTWLTMLDKDKFLYSPIANDVFKFWDYDLVNGGAEPQPVENGLPLEGLLQSIINKKPVLIPIAGEGASQMEIERETHFDGTNYLAIRPGVVIGYSRNEKTNAALEAAGIKVLPFHGNQLSLGMGNARCMSMPLSRKDVKW
modifications: ADI-ABD, Synthesized in the Lab
- Time of minimum level of food intake in the cycle ([2]; DIO C57BL/6J male mice on HFD, i.p. once a week): after the first day
- Pattern of food intake (intermittent fasting cycle) ([2]; DIO C57BL/6J male mouse on HFD, 5 U i.p. once a week, 2 weeks, n=1): induce a 7-day intermittent fasting cycle
- Bodyweight reached under treatment ([3]; DIO C57BL/6J male mouse on HFD, 5 U i.p., first cycle, from 47 g in 2 days, n=1): about 44 g

B3: N-ABD094-rhArg-Co^2+: SEQ ID NO: 50 (cobalt substituted); Mn^2+ substituted with Co^2+ in the ABD-rhArg fusion protein (protein)
chain: MHHHHHHDEAVDANSLAEAKEAANAELDSYGVSDFYKRLIDKAKTVEGVEALKDAILAALPSGSNNNNNNGSGGMSAKSRTIGIIGAPFSKGQPRGGVEEGPTVLRKAGLLEKLKEQECDVKDYGDLPFADIPNDSPFQIVKNPRSVGKASEQLAGKVAEVKKNGRISLVLGGDHSLAIGSISGHARVHPDLGVIWVDAHTDINTPLTTTSGNLHGQPVSFLLKELKGKIPDVPGFSWVTPCISAKDIVYIGLRDVDPGEHYILKTLGIKYFSMTEVDRLGIGKVMEETLSYLLGRKKRPIHLSFDVDGLDPSFTPATGTPVVGGLTYREGLYITEEIYKTGLLSGLDIMEVNPSLGKTPEEVTRTVNTAVAITLACFGLAREGNHKPIDYLNPPK
modifications: Co2+ substituted for Mn2+; N-ABD094-rhArg, Synthesized in the Lab
notes: Mn^2+ substituted with Co^2+ in the ABD-rhArg fusion protein
- Length of fasting period in the 7-day intermittent fasting cycle [2, 7]: 4 days
- Pattern of food intake (intermittent fasting cycle) [2, 7]: induce a 7-day intermittent fasting cycle
- Bodyweight reached under treatment ([3]; DIO C57BL/6J male mouse on HFD, 50 U i.p. once a week, from 45 g within 2 weeks, n=1): 32 g

B4: BAH: arginase-ABD fusion protein, SEQ ID NO: 76 (protein)
chain: MKPISIIGVPMDLGQTRRGPDMGPSAMRYAGVIERLERLHYDIEDLGDIPIGKAERLHEQGDSRLRNLKAVAEANEKLAAAVDQVVQRGRFPLVLGGDHSIAIGTLAGVAKHYERLGVIWYDAHGDVNTAETSPSGNIHGMPLAASLGFGHPALTQIGGYCPKIKPEHVVLIGVRSLDEGEKKFIREKGIKIYTMHEVDRLGMTRVMEETIAYLKERTDGVHLSLDLDGLDPSDAPGVGTPVIGGLTYRESHLAMEMLAEAQIITSAEFVEVNPILDERNKTASVAVALMGSLFGEKLMAQHDEAVDANSLAEAKVLANRELDKYGVSDYYKNLINNAKTVEGVKALIDEILAALPHHHHHH
modifications: BAH Fusion Protein, Synthesized in the Lab
- Therapeutic duration (and half-life) [1]: surprisingly high therapeutic duration (and half-life)

B5: PEGylated His-rhArg: PEGylated His-tagged recombinant human arginase (SEQ ID NO: 101) (protein)
chain: MHHHHHHMSAKSRTIGIIGAPFSKGQPRGGVEEGPTVLRKAGLLEKLKEQECDVKDYGDLPFADIPNDSPFQIVKNPRSVGKASEQLAGKVAEVKKNGRISLVLGGDHSLAIGSISGHARVHPDLGVIWVDAHTDINTPLTTTSGNLHGQPVSFLLKELKGKIPDVPGFSWVTPCISAKDIVYIGLRDVDPGEHYILKTLGIKYFSMTEVDRLGIGKVMEETLSYLLGRKKRPIHLSFDVDGLDPSFTPATGTPVVGGLTYREGLYITEEIYKTGLLSGLDIMEVNPSLGKTPEEVTRTVNTAVAITLACFGLAREGNHKPIDYLNPPK
modifications: PEGylated; His-rhArg, Synthesized in Lab
- Glucose tolerance in GTT [4]: significantly improved glucose tolerance
- Fat pad mass (perirenal, inguinal WAT, interscapular BAT) and liver mass [5]: dramatically reduced to a weight similar to that of the vehicle-treated lean control mice
- Kidney and heart mass [5]: significantly reduced
- Pattern of food intake (intermittent fasting cycles) [2, 8]: repetitive 7-day intermittent fasting cycles
- Total food intake per week, less than HFD (vehicle) group [2, 8]: about 28%
- Bodyweight reached under treatment ([3]; DIO C57BL/6J male mice on HFD, about 250 U i.p. once a week, from 50 g within 8 weeks): 30 g
- Insulin sensitivity in ITT [6]: marked increase in insulin sensitivity
